Consider 6 molecules from patent publication US20040009530A1 (ZYOMYX, published 2004).

B1: engineered rubredoxin protein F3 (designed binder)
chain: MAKWVCKICGYIYDEDAGFVEYYDDGVISPGTKFEELHTAWTCPICSCTYNPFEKLED
notes: Engineered Pyrococcus furiosus rubredoxin; No tags are stated for the assayed construct
B2: engineered rubredoxin protein D7 (designed binder)
chain: MAKWVCKICGYIYDEDAGEDPGHRSRYISPGTKFEELTTGWTCPICRCTNSTTSTNCFEKLED
notes: as for B1
B3: engineered rubredoxin protein G3 (designed binder)
chain: MAKWVCKICGYIYDEDAGFVEYYGHPNISPGTKFEELSRYVDGWTCPICSYGMPIFEKLED
notes: Engineered Pyrococcus furiosus rubredoxin
B4: engineered chaperonin protein SP4-2 (designed binder)
chain: DDDRIPASGIVIVGHNKVPSMPRVVKNAKIALIDSALEIKKTEIEAKVQISDPSKIQDFLNQETNTFKQMVEKIKKSGANVVLCGYKNLTVAYEYLAKEGIYAVYHVDESDMEKLAKATGAKIVTDLDDLTPSVLGEAETVEERGTANAPATYVMGCKGSVSHHHHHHSEQKLISEEDLLRLE
notes: not shown: FLAG-tag from the expression vector upstream of the insertion site
B5: engineered chaperonin protein SP4-5 (designed binder)
chain: DDDRIPASGIVIARPGESAFMPDVVKNAKIALIDSALEIKKTEIEAKVQISDPSKIQDFLNQETNTFKQMVEKIKKSGANVVLCNGDQADVAYDYLAKEGIYAVHFVDESDMEKLAKATGAKIVTDLDDLTPSVLGEAETVEERKYTEGVPTYVMGCKGSVSHHHHHHSEQKLISEEDLLRLE
notes: also called engineered protein clone SP4-5; not shown: FLAG-tag from the expression vector upstream of the insertion site
B6: engineered chaperonin protein SP4-1 (designed binder)
chain: DDDRIPASGIVIDRVGRDSNMPHVVKNAKIALIDSALEIKKTEIEAKVQISDPSKIQDFLNQETNTFKQMVEKIKKSGANVVLCADDYAHVAYDYLAKEGIYAVGYVTESDMEKLAKATGAKIVTDLDDLTPSVLGEAETVEERPWGNNKETYVMGCKGSVSHHHHHHSEQKLISEEDLLRLE
notes: Protein-level screening was 'similar to that for the HP6054 selections', that is, with a FLAG-tag vector and anti-FLAG-HRP detection; not shown: FLAG-tag from the expression vector upstream of the insertion site

In the first test the target is T1, human chorionic gonadotropin (human, UniProt P01215 25-116; P0DN86 21-165, biotinylated using an NHS-SS-biotin reagent (sites not given)).
T1 construct: The target was biotinylated and immobilized on Neutravidin- or Streptavidin-coated strip plates; also called hCG
T1 sequence (P01215 25-116, chain 1 of 2, other chains not shown): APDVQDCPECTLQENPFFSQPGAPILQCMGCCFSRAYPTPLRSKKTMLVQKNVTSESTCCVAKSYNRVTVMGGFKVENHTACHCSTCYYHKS
Description: affinity ELISA, hCG immobilized, serial dilution of engineered rubredoxin. The text has this:
The method used to identify engineered rubredoxin proteins that bind to human chorionic gonadotropin (hCG) were the same as the method used to identify chaperonin proteins that bind to hCG described in Section 6.9.6, above. The method identified three engineered rubredoxin proteins that could bind hCG. In the affinity ELISA assays, the engineered rubredoxin was serially diluted and the ELISA signal was plotted as a function of engineered rubredoxin concentration to determine EC₅₀s, as above. The following EC₅₀ values for the three library proteins was measured: […]
(In general: In an ELISA, binding on a coated surface is turned into a signal by an enzyme label.)
On to B1, for which the response was half-maximal at 35 nM (EC50).

In turn, B2 returned a concentration giving a half-maximal response (EC50) of 4000 nM.

Molecule B3 displayed an EC50 of 81 nM.

The target of the next test is T1, human chorionic gonadotropin. In words: affinity ELISA, hCG immobilized, serial dilution of engineered protein. From the text:
A total of 192 plaques were screened from the PEG precipitated and non-PEG precipitated eluted phage of round three (FIG. 9). Screening at the phage and protein level was similar to that for the HP6054 selections. The screen identified three engineered chaperonin proteins that were solubly expressed in E. coli and could bind hCG. Both the PEG-precipitated and non-PEG-precipitated selections gave similar results. In these affinity ELISA assays, the engineered chaperonin was serially diluted and the ELISA signal was plotted as a function of engineered chaperonin concentration to determine EC₅₀s, as above. The following EC₅₀ values for the three engineered library proteins was measured: […]
The molecule B4 yielded a concentration for a half-maximal effect (EC50) of 48000 nM.

As for B5, a half-maximal effect (EC50) was put at 630 nM.

The molecule B6 gave an EC50 of 5400 nM.

As a reminder, the EC50 is the midpoint of the concentration-response curve. Higher therefore signals a less potent agent.
